Reference: patent publication US20160215061A1

Target: recombinant mouse FcγRIIB expressed in NS0 cells (mouse) (UniProt P08101)
Test: SPR (Biacore); capture sample on chip, rmFcgRIIB (NSO) injected; reference Herceptin

Sequence of recombinant mouse FcγRIIB expressed in NS0 cells (mouse) (P08101 40-207 limits assumed): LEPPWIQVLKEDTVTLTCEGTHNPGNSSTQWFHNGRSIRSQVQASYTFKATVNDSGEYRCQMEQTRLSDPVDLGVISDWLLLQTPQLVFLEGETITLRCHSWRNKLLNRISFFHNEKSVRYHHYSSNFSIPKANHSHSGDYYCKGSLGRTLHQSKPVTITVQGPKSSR

Fold Increase in RU vs WT IgG1: 0.5 fold
Substance: F243A/V264A Fc (SEQ ID NO: 7) (from UniProt P0DOX5 218-448)
